Values of other authors as cited in article PMC1297595.

Biological target: CD26 (Homo sapiens) (UniProt P27487)
UniProt P27487, sequence (P27487 39-766): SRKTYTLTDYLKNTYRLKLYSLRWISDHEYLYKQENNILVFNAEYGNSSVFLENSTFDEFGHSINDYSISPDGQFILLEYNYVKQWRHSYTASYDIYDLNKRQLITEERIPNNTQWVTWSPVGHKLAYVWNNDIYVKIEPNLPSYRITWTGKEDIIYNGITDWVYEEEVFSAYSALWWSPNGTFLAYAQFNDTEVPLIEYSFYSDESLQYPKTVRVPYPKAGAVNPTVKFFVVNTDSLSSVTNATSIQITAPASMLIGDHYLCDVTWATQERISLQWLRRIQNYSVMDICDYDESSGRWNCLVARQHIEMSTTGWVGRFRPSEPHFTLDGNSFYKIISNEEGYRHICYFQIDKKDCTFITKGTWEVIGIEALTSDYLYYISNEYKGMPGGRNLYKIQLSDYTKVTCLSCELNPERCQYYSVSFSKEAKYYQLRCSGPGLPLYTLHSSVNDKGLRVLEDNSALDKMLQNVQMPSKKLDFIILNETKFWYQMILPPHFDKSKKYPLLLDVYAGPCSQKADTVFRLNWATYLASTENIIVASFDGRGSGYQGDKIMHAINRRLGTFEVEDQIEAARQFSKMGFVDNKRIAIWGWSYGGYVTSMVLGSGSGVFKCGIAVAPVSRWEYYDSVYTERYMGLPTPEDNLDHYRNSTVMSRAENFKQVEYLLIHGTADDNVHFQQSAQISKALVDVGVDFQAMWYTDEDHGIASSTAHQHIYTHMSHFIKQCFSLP

ADA (from UniProt P00813)
Kd: 65 nM
